Article PMC4164784, “4E-BPs require non-canonical 4E-binding motifs and a lateral surface of eIF4E to repress translation” (Nature Communications, 2014)
Entries after “also recorded” stand apart in the source; their conditions may differ.

B1: GST-Thor (full length) (natural protein, Drosophila melanogaster, UniProt Q9XZ56 1-117, looked up)
chain: MSASPTARQAITQALPMITRKVVISDPIQMPEVYSSTPGGTLYSTTPGGTKLIYERAFMKNLRGSPLSQTPPSNVPSCLLRGTPRTPFRKCVPVPTELIKQTKSLKIEDQEQFQLDL
notes: Thor, Drosophila melanogaster; source: E. coli BL21 (DE3) STAR, coexpressed with SHN-eIF4E, complex purified on glutathione agarose
B2: Thor ΔNC: Thor ∆76–84, non-canonical motif deleted (protein)
chain: MSASPTARQAITQALPMITRKVVISDPIQMPEVYSSTPGGTLYSTTPGGTKLIYERAFMKNLRGSPLSQTPPSNVRTPFRKCVPVPTELIKQTKSLKIEDQEQFQLDL
modifications: left off: HA (λN-HA, from the vector pAc5.1-λN-HA), end not stated, kept | V5, end not stated, state not stated
notes: Thor ∆76–84, non-canonical motif deleted
B3: 4E-T: Dm 4E-transporter (1–1010), Q8IH18; residues 1–58 in pull-down assays (protein)
chain: MDTSKISARYSKVDLLALRYEGKSRQRPQCSTRLELQTLGFWKINLNTAALTVSSAYSNQNKNRLSPEADNSSLICSNSSSISSRRAMRNRERANNYYQRFVPTDSLLISGEDKDKDALSHGQPYKLNIIDHRSISSSHLMPAFAKRRFVISKGSNSEESNEGINTCASKGKAASSPSRKGSELDTAETCLNFVQPDHDQCMSSSPTFSTSRQERRIGSGRLLPRSDNWDYKNEKTVEASIENEKETSPNGSGSTSSLNQHNQSQHRSRTFSGRLVERVPEVTDRRFQYDSKKSFDRQGINNRRISGKEPFSTQSRSKRGNSYLIHEEPEWFSAGPKSQLETIDLHGFEDLEKNEERSVTEDKNNQIQQLDKNLDAQASKDEASMRNSNDSLNFREVIPSDEKKHTDENVVTSIQNSTDLGHPNKNKPIQMQPSQNPESEFNFDAFLNMHPLDNSVLSNDETGKSDSKGTSRFSRWFRQKEAANNNEFPGFRESHAQEKRGIPSVKDLEAQMIKVDMRTDLINPIAGSLCQTVQMEKPIARDTEAFKKLLQQLGSQARQHHPCNDDCRTINLSNIANHVHLESKLHQKINDGHLQQPELSVNVPTMPTSSHVFLQKRLEIQHLIQRLHCGDVSHDFLEKELDNPSTPAATKDVIATVLNEYSHSKRNPVVTGDPNIFTQQSFLQPQSVHQHYSQELHSQNTANHTINQLISHGNSPTPLAFTPTSVLRKMTADKDTQSPSTYCQNPQYHVHQQNAKQVGTRENVLEPQLTATMAVQPRMILGGGNFAIGQNNQHLSPNMSQSRNQQVLKWTSGNMQMVHGKTFGRPILKGGLNSMPHSNSALPFTAHKIEMQPIHQPHLQQQQHRFKAVQSVESNLNTESVHQNITSPVGWHQLYMQHQQQHHHTRQQLSQRVIYGEMHRQSNPQMSPPVPGFSDSSDSGNVIKANSLTSPSYQRDERISSPTNQLAQWFSPELLAKASAGKLPLLNVNQALSLEEFERSIQHSSGVVHN
modifications: left off: GFP, end not stated, kept
notes: Dm 4E-transporter (1–1010), Q8IH18; residues 1–58 in pull-down assays

Tests used:
[1] = target: T1, SHN-eIF4E (full length, WT) (Drosophila melanogaster, UniProt P48598-2 1-248); test: pull-down; preassembled complexes of SHN-eIF4E (WT or II-AA) with GST-eIF4G, GST-CUP, GST-Thor or GST-4E-T (coexpressed, purified on glutathione agarose) recovered on Strep-Tactin beads; conditions: both partners purified
T1 construct: eIF4E, Drosophila melanogaster; also called SHN-tagged eIF4E; SNH-tagged eIF4E; not shown: Strep-NusA-His (SHN), N-terminal, kept
T1 sequence (looked up): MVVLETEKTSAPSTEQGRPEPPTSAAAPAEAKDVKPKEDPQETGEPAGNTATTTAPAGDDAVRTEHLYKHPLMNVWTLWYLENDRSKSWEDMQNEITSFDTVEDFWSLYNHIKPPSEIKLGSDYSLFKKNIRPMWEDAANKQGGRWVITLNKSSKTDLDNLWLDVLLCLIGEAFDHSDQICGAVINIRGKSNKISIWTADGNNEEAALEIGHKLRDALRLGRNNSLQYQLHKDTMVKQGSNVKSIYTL

endogenous eIF4E = test: Coimmunoprecipitation / m7GTP pull-down with endogenous eIF4E in S2 cell lysates; format: cell-based, Drosophila melanogaster; conditions: western blot
Experimental: (§1) The coimmunoprecipitations assays were performed as previously described. For the pull downs using m^7GTP beads, 25 μl of immobilized γ-aminophenyl-m^7GTP (C10-spacer—Jena Bioscience) beads was added to the cell lysates and the mixtures were rotated for 1 h at 4 °C. The beads were washed three times with NET buffer (50 mM Tris (pH 7.4), 150 mM NaCl, 1 mM EDTA and 0.1% Triton X-100). The bound proteins were eluted with 2 × SDS–polyacrylamide gel electrophoresis (SDS–PAGE) sample buffer and analyzed by western blotting (WB). All of the WB experiments were developed with the ECL western blotting detection system (GE Healthcare) as recommended by the manufacturer. The antibodies used in this study are listed in Supplementary Table 2.
Thor and 4E-T) or HA-eIF4G and endogenous eIF4E in S2 cell lysates. The proteins were immunoprecipitated using a polyclonal anti-eIF4E antibody (α-4E). The pre-immune (Pre-I) serum and an HA-tagged version of MBP served as negative controls. The inputs (1%) and immunoprecipitates (10%) were analyzed by western blotting using anti-HA and anti-eIF4E antibodies. (b,c) The interaction of HA-tagged full length 4E-BPs (CUP, Thor and 4E-T) and eIF4G with endogenous eIF4E was analyzed by coimmunoprecipitation using anti-HA antibodies (b) or by pull-down using m7GTP-Sepharose beads (c). HA-MBP served as a negative control. The inputs (10%) and immunoprecipitates (30%) were analyzed by western blotting using anti-HA and anti-eIF4E antibodies. (d) Western blot showing the interaction of HA-Thor (full-length either wild-type or mutants) with endogenous eIF4E in S2 cells. The proteins were immunoprecipitated using anti-HA antibodies and analyzed as described in (b,c). (e) Western blot showing the interaction of HA-4E-T (residues 1–511, wild-type or mutants) with endogenous eIF4E. The proteins were immunoprecipitated using anti-HA antibodies and analyzed as described in (b,c). The size markers (kDa) are shown to the right of each panel. Mutants are described in Supplementary Table 1.

eIF4E (full length, WT) = test: GST/MBP pull-down of full-length WT eIF4E, coexpressed in E. coli; format: binding, Drosophila melanogaster; conditions: recombinant CUP (311–440), Thor (full length), 4E-T (1–58) or eIF4G (578–650), WT or mutant, SDS–PAGE
Experimental: (§2) For the pull-down assays shown in Fig. 3 and Supplementary Fig. 6a, the full-length His6- or SHN-tagged eIF4E (WT or II-AA mutant) was coexpressed with GST or MBP-tagged protein fragments, including CUP (residues 311–440), Thor (full length), 4E-T (residues 1–58) or eIF4G (residues 578–650) in E. coli BL21 (DE3) STAR cells in autoinducing medium[44] overnight at 20 °C. The cells were resuspended in lysis buffer (20 mM Tris–HCl (pH 7.5), 100 mM NaCl, 1 mM DTT) supplemented with EDTA-free protease inhibitor (Roche) and lysed by sonication. The cleared lysates were incubated for 1 h with 20 μl of Protino Glutathione Agarose 4B beads (Macherey-Nagel) or amylose resin (New England Biolabs). The beads were washed three times with lysis buffer, and the bound proteins were eluted with lysis buffer containing 25 mM L-glutathione or 25 mM maltose for 15 min. The proteins were analyzed by 10–15% SDS–PAGE followed by Coomassie blue staining.

[2] = target: T2, eIF4E–eIF4G complex (eIF4E WT; eIF4G residues 578–650) (Drosophila melanogaster, UniProt P48598); test: Competition assay, displacement of GST-eIF4G from preassembled eIF4E (WT)–eIF4G complexes; format: biochemical; conditions: Fig. 5a,c; fivefold molar excess of MBP-tagged competitor, 30 min at 4 °C, m7GTP or Strep-Tactin pull down
T2 construct: full-length eIF4E (WT or the II-AA mutant) containing an N-terminal SNH-tag was coexpressed; made in house; host or cells: E. coli BL21 Star (DE3), coexpression
T2 sequence (P48598 1-248 isoform P48598-2): T1 sequence (looked up)
Experimental: For the competition assays shown in Figs 5a,c and 6a,b, complexes containing SHN- or MBP-tagged eIF4E (WT or II-AA mutant) bound to GST-eIF4G (residues 578–650), GST-Thor (full length), GST-4E-T (residues 1–58) or GST-CUP (311–440) were obtained by coexpressing the corresponding proteins in E. coli BL21 (DE3) STAR cells (30 ml culture). The cells were resuspended in lysis buffer (5 ml) that was supplemented with EDTA-free protease inhibitor (Roche) and 1 mg ml^−1 lysozyme and lysed by sonication. The cleared lysates were incubated with 400 μl of Protino Glutathione Agarose 4B (Macherey-Nagel) for 1 h. The beads were washed three times with lysis buffer, and the proteins were eluted after 10 min of incubation with lysis buffer containing 25 mM L-glutathione. The protein complexes were stored at −20 °C or used in competition assays.
The purified recombinant complexes were mixed with excess amounts of the indicated purified competitor proteins (Fig. 5c) or with bacterial lysates expressing the competitor proteins (Figs 5a and 6) and incubated for 30 min at 4 °C. After incubation, 20 μl of immobilized γ-Aminophenyl-m^7GTP or Strep-Tactin Sepharose (IBA), were added to the samples and incubated for another 40 min at 4 °C. The beads were washed three times with lysis buffer and eluted with lysis buffer containing 2.5 mM desthiobiotin (Strep-Tactin Sepharose) or with 20 μl of SDS–PAGE loading buffer (Aminophenyl-m^7GTP beads). The proteins were analyzed by 10–15% SDS–PAGE followed by staining with Coomassie blue staining. […]

[3] = test system: eIF4E II-AA (lateral surface mutant); test: Coimmunoprecipitation with HA-eIF4E II-AA in S2 cells; format: cell-based, Drosophila melanogaster; conditions: HA-eIF4E II-AA vs WT, western blot
Experimental: as §1

[4] = test system: eIF4E II-AA mutant (full length); test: GST/MBP pull-down of full-length eIF4E II-AA mutant, coexpressed in E. coli; format: binding, Drosophila melanogaster; conditions: recombinant CUP (311–440), Thor (full length), 4E-T (1–58) or eIF4G (578–650), WT or mutant, SDS–PAGE
Experimental: as §2

[5] = test system: firefly luciferase (F-Luc) reporter in S2 cells; test: Translation repression assay, F-Luc reporter in S2 cells; format: cell-based, Drosophila melanogaster; conditions: overexpression, C.I. and E.I., unpublished results
Experimental: S2 cells were transfected in 6-well plates using Effectene transfection reagent (Qiagen) according to the manufacturers protocol. The transfection mixtures contained: 0.1 μg of F-Luc reporter plasmid (F-Luc-V5), 0.3 μg of control RNA reporter, and increasing amounts of plasmids expressing HA-CUP (fragment 1–402; 0.05–0.2 μg) and HA-Thor (full length, 0.1–0.5 μg). The plasmids expressing the corresponding mutants or the HA peptide control were transfected at the highest concentration. In all the experiments, the cells were collected three days after transfection. The F-Luc activity was measured using the Dual-Luciferase reporter assay system (Promega). The northern blotting was performed as previously described. The F-Luc mRNA levels were determined by northern blotting and were normalized to those of the control RNA. The normalized F-Luc mRNA levels were then used to normalize the F-Luc activity, to obtain translation efficiencies.

[6] = test system: endogenous eIF4E and HA-tagged 4E-BPs in S2 cells; test: Immunofluorescence localization in S2 cells; format: cell-based, Drosophila melanogaster
Experimental: S2 cells expressing HA-tagged versions of CUP, Thor and 4E-T or the indicated mutants were treated with Leptomycin B (100 nM; Sigma) or methanol as a control for 12 h. After the LMB treatment, the cells were allowed to adhere to poly-D-lysine–coated coverslips for 15 min and were fixed with 2% paraformaldehyde for 10 min. The cells were then permeabilized with 0.1% Triton X-100 in PBS (10 min) and stained with affinity-purified monoclonal anti-HA (Covance 1:1,000) and polyclonal anti-eIF4E (1:2,000) antibodies in PBS containing 1% BSA for 1 h. Alexa Fluor 594-labeled goat anti-rabbit and 488-labeled anti-mouse antibodies (Invitrogen) were used at dilutions of 1:1,000 and 1:2,000, respectively. The cells were mounted using Fluoromount-G (Southern Biotech). The images were acquired at room temperature using a confocal microscope (TCS SP2; Leica) that was fitted with a Plan-Apochromat × 100 NA 1.40 oil immersion objective and a series of three photomultipliers (Hamamatsu Photonics) controlled with the Leica confocal software (version 2.61). The images were prepared using Photoshop (Adobe). […]
Thor) independent experiments. […] Confocal fluorescent […]
micrographs of fixed S2 cells expressing HA-4E-T and GFP-Tral. The localization of HA-4E-T was determined by indirect immunofluorescence using an anti-HA antibody. The merged pictures show the HA signal in red and the GFP-Tral signal in green. Bar: 5 μm.

Molecule | binding result [1] | interaction with endogenous eIF4E (in words) (endogenous eIF4E) | binding to WT eIF4E (in words) (eIF4E (full length, WT)) | competition with eIF4G for eIF4E WT (in words) [2] | association with eIF4E II-AA (in words) [3] | binding to eIF4E II-AA mutant (in words) [4] | effect on mRNA upon overexpression (in words) [5] | nuclear accumulation of endogenous eIF4E upon LMB (in words) ([6]; S2 cells expressing 4E-BP or mutant, LMB 100 nM, 12 h) | localization of endogenous eIF4E (in words) ([6]; S2 cells overexpressing 4E-BP or mutant, −LMB) | nuclear accumulation of 4E-BP upon LMB (in words) ([6]; S2 cells, LMB 100 nM, 12 h) | localization of the 4E-BP (in words) ([6]; S2 cells, steady-state, −LMB)
B1 | binds |  |  |  |  |  |  |  |  |  | 
B2 |  | abolished the interaction with eIF4E | The results obtained for the Thor NC* and C+NC* mutants were confirmed; also recorded: interacted with eIF4E | abolish its ability to compete with eIF4G |  |  |  |  |  |  | 
B3 |  | interacted with endogenous eIF4E |  |  | disrupted the association | pulled down comparable amounts of WT and mutant eIF4E | caused mRNA degradation when overexpressed | endogenous eIF4E accumulated in the nucleus | detected in P-bodies | nuclear accumulation | localizes to P-bodies; also recorded: accumulated in cytoplasmic foci, which correspond to P-bodies
